Tests used:
Assay in all cases: two-hybrid; mammalian two-hybrid (Checkmate, Promega) in Vero cells; pACT and pBIND fusions in both orientations with the pG5luc reporter; firefly/Renilla luciferase at 48 h as fold of the control with empty pACT or pBIND
Conditions in all cases: partners not purified
[1] = molecular target: T1, PI4KB (mammalian two-hybrid fusion) (UniProt Q9UBF8 1-816)
T1 construct: PI4KB, Golgi protein; two-hybrid construct not described; Two-hybrid construct not described in the methods; also called phosphatidylinositol 4-kinase IIIβ; source: Vero cells, transfected, mammalian two-hybrid fusion
T1 sequence (Q9UBF8 whole entry, the tested form may be a part): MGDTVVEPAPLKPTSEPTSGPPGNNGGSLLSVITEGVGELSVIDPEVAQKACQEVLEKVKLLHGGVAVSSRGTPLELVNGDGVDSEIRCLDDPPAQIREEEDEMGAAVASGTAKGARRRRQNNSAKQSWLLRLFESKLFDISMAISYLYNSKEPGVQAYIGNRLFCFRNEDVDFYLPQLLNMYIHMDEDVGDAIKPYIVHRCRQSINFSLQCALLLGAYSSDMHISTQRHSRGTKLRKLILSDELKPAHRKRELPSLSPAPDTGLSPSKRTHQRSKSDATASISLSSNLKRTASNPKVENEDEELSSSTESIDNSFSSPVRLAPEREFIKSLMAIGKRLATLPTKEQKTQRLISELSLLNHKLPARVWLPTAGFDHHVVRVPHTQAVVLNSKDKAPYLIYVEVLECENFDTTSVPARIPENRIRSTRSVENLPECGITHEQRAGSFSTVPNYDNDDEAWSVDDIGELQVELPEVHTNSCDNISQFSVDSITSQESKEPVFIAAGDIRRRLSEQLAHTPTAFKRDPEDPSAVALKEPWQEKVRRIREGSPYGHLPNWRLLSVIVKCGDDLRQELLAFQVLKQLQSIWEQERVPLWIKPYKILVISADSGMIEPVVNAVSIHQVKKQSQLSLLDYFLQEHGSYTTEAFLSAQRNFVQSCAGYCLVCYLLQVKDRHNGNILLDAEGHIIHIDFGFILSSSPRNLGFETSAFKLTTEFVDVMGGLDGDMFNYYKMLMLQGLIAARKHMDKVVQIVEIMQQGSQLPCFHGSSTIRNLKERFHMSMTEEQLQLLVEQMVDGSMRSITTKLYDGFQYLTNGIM

[2] = molecular target: T2, OSBP (mammalian two-hybrid fusion) (UniProt P22059 1-807)
T2 construct: two-hybrid construct not described; Two-hybrid construct not described in the methods; source: Vero cells, transfected, mammalian two-hybrid fusion
T2 sequence (looked up): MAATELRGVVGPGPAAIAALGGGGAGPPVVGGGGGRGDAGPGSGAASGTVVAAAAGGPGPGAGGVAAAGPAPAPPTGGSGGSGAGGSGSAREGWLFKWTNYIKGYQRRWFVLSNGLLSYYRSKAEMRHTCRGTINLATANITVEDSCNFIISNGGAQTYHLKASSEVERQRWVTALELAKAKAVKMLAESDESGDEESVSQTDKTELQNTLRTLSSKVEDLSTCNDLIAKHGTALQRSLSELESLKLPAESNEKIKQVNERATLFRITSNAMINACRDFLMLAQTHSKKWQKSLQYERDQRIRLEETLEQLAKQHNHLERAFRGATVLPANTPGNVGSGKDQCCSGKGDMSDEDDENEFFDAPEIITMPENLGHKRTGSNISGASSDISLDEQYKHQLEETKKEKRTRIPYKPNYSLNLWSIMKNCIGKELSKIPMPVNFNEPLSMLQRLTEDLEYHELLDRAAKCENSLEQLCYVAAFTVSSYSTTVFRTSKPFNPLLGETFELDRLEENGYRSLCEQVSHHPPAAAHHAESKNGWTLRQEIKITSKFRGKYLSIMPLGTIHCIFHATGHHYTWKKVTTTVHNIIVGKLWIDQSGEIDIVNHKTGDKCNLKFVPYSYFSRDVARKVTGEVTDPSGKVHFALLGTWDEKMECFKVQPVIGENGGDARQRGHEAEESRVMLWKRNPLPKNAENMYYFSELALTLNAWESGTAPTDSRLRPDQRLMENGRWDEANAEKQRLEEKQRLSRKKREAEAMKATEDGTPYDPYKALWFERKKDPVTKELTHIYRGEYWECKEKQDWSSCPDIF

[3] = molecular target: T3, ACBD3 (mammalian two-hybrid fusion) (UniProt Q9H3P7 1-528)
T3 construct: ACBD3, Golgi protein; two-hybrid construct not described; Two-hybrid construct not described in the methods; source: Vero cells, transfected, mammalian two-hybrid fusion
T3 sequence (looked up): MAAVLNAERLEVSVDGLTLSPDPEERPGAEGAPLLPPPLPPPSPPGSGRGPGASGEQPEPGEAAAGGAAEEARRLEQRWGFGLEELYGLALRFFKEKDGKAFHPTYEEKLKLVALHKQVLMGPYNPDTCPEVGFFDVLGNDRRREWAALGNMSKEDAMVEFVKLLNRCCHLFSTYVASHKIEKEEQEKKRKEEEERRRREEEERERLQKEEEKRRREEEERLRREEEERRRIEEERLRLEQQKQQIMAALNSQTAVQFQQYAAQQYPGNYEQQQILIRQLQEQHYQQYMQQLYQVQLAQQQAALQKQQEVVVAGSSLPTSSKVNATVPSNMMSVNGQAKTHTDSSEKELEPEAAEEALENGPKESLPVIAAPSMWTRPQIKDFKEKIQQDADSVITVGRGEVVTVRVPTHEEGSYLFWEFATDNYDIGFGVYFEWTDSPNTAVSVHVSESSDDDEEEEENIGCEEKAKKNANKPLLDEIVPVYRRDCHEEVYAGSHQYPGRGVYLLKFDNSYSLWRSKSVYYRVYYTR

B1: IFITM1 (mammalian two-hybrid fusion) (natural protein, human, UniProt P13164 1-125, looked up)
chain: MHKEEHEVAVLGPPPSTILPRSTVINIHSETSVPDHVVWSLFNTLFLNWCCLGFIAFAYSVKSRDRKMVGDVTGAQAYASTAKCLNIWALILGILMTIGFILLLVFGSVTVYHIMLQIIQEKRGY
notes: IFITM1, human; coding region amplified by PCR from an OriGene cDNA clone; one fusion partner at a time; also called interferon-induced transmembrane protein 1; pACT-IFITM1; source: Vero cells, transfected, mammalian two-hybrid fusion
fold increase in luciferase activity [1]: 8.2 fold
fold increase in luciferase activity [2]: 7.8 fold
fold increase in luciferase activity [3]: 84.2 fold

From publication PMC10256215, “IFITM1 enhances nonenveloped viral RNA replication by facilitating cholesterol transport to the Golgi” (PLOS Pathogens, 2023)
